The text below walks through data of US20120225437A1.

The target in the experiment is Rat MBL-A (mannan-binding lectin A) (rat) (UniProt P19999). Description: SPR, MBL immobilised, MASP-1 at 100 nM, equivalent concentrations of NaCl up to 550 mM.

Regarding “MASP-1ent, modified form of rat MASP-1 in which the zymogen cleavage site has been replaced by an enterokinase recognition site (DDDDK) (from UniProt Q8CHN8 25-704) (enzyme)”, the percent of maximal binding in the presence of NaCl (ionic strength control) is greater than 60%.
